Several values for one entry are separate records, joined by “and”; a condition that tells them apart may be missing. Identical values can stand only once. Like-named read-outs stand apart in the source and are kept apart here.
Experiments:
[1] = molecular target: PARP2 (Mus musculus) (UniProt O88554); details: cited from earlier work
[2] = molecular target: PARP2 (Mus musculus) (UniProt O88554); details: cited from earlier work; remark: listed apart in the source
[3] = tested on: PARP2 (Mus musculus); test: EMSA; details: no divalent ions; EMSA: 2-3 nM nucleosomes, 5% PAGE in 0.2x TBE, 140 V, 4 C; divalent ions as given per row; binding buffer not in the material
[4] = molecular target: Nucleosome assembled on a fluorescently labelled 187-bp DNA template (603 positioning sequence) with histones of chicken donor chromatin (chicken); test: native gel or EMSA + other: single particle fluorescence intensity analysis in the gel; nucleosomes NP with PARP2 (50 nM) in buffer A with 0.3 mM Zn2+; native PAGE
[5] = molecular target: DNA; details: read-out: Kd of PARP2 complex with DNA, cited from earlier work
[6] = molecular target: nucleosome; details: read-out: Kd of PARP2-nucleosome complex, cited from earlier work
[7] = molecular target: T1, NP nucleosomes (Mus musculus, UniProt O88554); test: EMSA of PARP2-nucleosome complexes (non-denaturing PAGE, FRET-in-gel); type: binding, chicken
T1 construct: Recombinant mouse full-length PARP2 was obtained in the baculovirus expression system; made in house; host or cells: PARP2: Sf9 insect cells (baculovirus), gift of Prof; O. Lavrik; nucleosomes assembled in house
Procedure: Sample preparation for EMSA was the same as for spFRET microscopy, although a slightly higher concentration of nucleosomes (2–3 nM) was used. The PARP2-nucleosome complexes were subjected to 5% polyacrylamide gel in 0.2×TBE buffer. Electrophoresis was performed under native conditions at 140 V, + 4 °C for ∼1.5 h. The gels were scanned using Amersham Typhoon RGB imager (Cytiva, Sweden). Fluorescence was excited in the gel at the 532 nm wavelength and recorded in the 570–610 nm (Cy3 signal) and 650–700 nm (FRET signal of Cy5) spectral regions. The resulting images were obtained in green (Cy3 signal) and red (FRET signal of Cy5) colors and merged.

Molecule: PARP2 (from UniProt O88554)
- Kd [1]: 101 nM
- Kd [2]: 152 nM

Molecule: Np nucleosome (s603-42A, 187 bp DNA)
- K half [3]: 40 nM

Molecule: Recombinant mouse full-length PARP2 (poly(ADP-ribose)polymerase 2) (from UniProt O88554 1-559) (enzyme)
- stoichiometry N (PARP2 per nucleosome) [4]: 1 and 2

B1: PARP2: Recombinant mouse full-length PARP2 obtained in the baculovirus expression system using Sf9 insect cells (protein)
chain: MAPRRQRSGSGRRVLNEAKKVDNGNKATEDDSPPGKKMRTCQRKGPMAGGKDADRTKDNRDSVKTLLLKGKAPVDPECAAKLGKAHVYCEGDDVYDVMLNQTNLQFNNNKYYLIQLLEDDAQRNFSVWMRWGRVGKTGQHSLVTCSGDLNKAKEIFQKKFLDKTKNNWEDRENFEKVPGKYDMLQMDYAASTQDESKTKEEETLKPESQLDLRVQELLKLICNVQTMEEMMIEMKYDTKRAPLGKLTVAQIKAGYQSLKKIEDCIRAGQHGRALVEACNEFYTRIPHDFGLSIPPVIRTEKELSDKVKLLEALGDIEIALKLVKSERQGLEHPLDQHYRNLHCALRPLDHESNEFKVISQYLQSTHAPTHKDYTMTLLDVFEVEKEGEKEAFREDLPNRMLLWHGSRLSNWVGILSHGLRVAPPEAPITGYMFGKGIYFADMSSKSANYCFASRLKNTGLLLLSEVALGQCNELLEANPKAQGLLRGKHSTKGMGKMAPSPAHFITLNGSTVPLGPASDTGILNPEGYTLNYNEFIVYSPNQVRMRYLLKIQFNFLQLW
- Kd ([5]; 18 bp duplex oligonucleotides): 11 nM
- Kd ([5]; 147 bp DNA having a gap): 58 nM
- Kd ([5]; 147 bp intact DNA): 840 nM
- Kd ([6]; ref 28): 150 nM
- Kd ([6]; ref 59): 76 nM
- PARP2 concentration at which complexes with nucleosomes are formed ([7]; absence of divalent ions): ≥ 12.5 nM
- EC50 ([7]; absence of divalent ions, read-out: PARP2 concentration at ~50% decrease in the number of free nucleosomes (50% of nucleosomes in complexes)): 40 ± 10 nM
- PARP2 concentration above which aggregation prevents separation of complexes in the gel ([7]; presence of 0.3 mM Zn2+): above 50 nM

Source: publication PMC12209172, “Poly(ADP-ribose)polymerase 2 is zinc-dependent enzyme and nucleosome reorganizer” (Cellular and Molecular Life Sciences: CMLS, 2025)
